According to patent US20260374873 (published 2026):

Assays:
[1] = target: T1, rat B7-H3 on CHO-S (rat, UniProt Q7TPB4); assay: FACS
T1 chain: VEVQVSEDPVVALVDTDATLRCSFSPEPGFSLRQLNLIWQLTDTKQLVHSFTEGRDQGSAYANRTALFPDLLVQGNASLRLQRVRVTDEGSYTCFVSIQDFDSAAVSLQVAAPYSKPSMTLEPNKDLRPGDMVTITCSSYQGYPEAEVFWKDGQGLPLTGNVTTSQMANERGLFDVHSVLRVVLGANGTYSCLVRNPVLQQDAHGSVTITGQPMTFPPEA

[2] = target: T2, human B7-H2 (human, UniProt O75144); assay: ELISA
T2 chain: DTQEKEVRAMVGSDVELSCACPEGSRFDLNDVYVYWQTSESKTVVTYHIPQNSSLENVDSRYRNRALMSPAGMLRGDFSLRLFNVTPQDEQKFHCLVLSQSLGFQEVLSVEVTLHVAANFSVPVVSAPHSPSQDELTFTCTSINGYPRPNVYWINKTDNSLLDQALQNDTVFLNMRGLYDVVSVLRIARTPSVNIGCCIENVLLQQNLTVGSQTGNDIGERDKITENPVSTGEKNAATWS

[3] = target: T3, human B7-H4 (human, UniProt Q7Z7D3); assay: ELISA
T3 chain: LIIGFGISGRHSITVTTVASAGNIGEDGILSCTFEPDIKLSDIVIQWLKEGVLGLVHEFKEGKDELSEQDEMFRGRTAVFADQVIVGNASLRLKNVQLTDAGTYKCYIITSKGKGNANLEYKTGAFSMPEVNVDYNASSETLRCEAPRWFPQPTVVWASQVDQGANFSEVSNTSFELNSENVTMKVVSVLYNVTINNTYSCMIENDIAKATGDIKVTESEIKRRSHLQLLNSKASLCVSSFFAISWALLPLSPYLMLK

[4] = target: T4, rat B7-H3 (rat, UniProt Q7TPB4); assay: BLI
T4 chain: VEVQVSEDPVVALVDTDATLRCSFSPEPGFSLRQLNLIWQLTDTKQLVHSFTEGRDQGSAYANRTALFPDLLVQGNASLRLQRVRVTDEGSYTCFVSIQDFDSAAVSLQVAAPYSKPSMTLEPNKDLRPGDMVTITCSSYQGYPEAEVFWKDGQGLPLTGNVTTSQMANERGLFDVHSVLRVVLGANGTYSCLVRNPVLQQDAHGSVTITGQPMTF

[5] = target: human B7-H1 (human, UniProt Q9NZQ7); assay: ELISA
Sequence of human B7-H1 (Q9NZQ7 19-238): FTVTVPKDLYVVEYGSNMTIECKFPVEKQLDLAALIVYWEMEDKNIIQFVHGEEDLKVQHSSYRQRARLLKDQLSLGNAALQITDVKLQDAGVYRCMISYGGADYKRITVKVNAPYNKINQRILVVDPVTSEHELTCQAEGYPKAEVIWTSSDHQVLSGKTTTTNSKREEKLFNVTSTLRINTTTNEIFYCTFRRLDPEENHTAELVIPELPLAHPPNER

[6] = target: T5, human B7-1 (human, UniProt P33681); assay: ELISA
T5 chain: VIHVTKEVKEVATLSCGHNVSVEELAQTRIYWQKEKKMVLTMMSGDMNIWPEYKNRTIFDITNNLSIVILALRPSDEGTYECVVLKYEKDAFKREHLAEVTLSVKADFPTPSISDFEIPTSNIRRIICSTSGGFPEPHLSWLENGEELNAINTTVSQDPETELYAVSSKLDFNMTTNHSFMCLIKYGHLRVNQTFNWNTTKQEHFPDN

[7] = target: T6, human B7-2 (human, UniProt P42081); assay: ELISA
T6 chain: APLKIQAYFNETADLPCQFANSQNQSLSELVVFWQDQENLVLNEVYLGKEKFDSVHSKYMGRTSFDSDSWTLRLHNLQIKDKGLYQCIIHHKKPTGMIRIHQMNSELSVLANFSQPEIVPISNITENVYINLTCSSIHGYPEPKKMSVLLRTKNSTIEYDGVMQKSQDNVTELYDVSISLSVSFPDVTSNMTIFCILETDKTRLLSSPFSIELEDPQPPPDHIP

binding result [1]: no binding | binding result [2]: no binding | binding result [3]: no binding | binding result [4]: no binding | binding result [5]: no binding | binding result [6]: no binding | binding result [7]: no binding
B1: 2#8890 (antibody, V domains shown)
VH: QVQLQESGPGLVQPSGTLSLTCAVSGGSDSSTNWWTWVRQSPGQGLEWIGEISPIGFTSYSPSLRSRVTISVDKSKTQFSLKLSSVTAADTAVYYCARDRLYFAFWGQGTLVTVSS
VL: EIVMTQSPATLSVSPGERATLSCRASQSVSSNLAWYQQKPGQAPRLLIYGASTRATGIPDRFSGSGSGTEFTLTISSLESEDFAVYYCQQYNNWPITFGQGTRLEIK
